Biological target: T1, WT Aβ (1–10)
T1 chain: DAEFRHDSGY
Experiment: native MS; IM-MS of oligomers of one Aβ fragment alone; Aβ (1–10) and Aβ (1–16) 600 µM, 10 mM NH4OAc; oligomers of many sizes seen, a printed size is the largest one
Conditions: remark: other sources report otherwise

stoichiometry N: 19
B1: WT Aβ (1–10) (peptide)
peptide: DAEFRHDSGY

Reference: PMC6834639
